This passage reports KD of the first binding event (high affinity, endothermic), KD of the second binding event (lower affinity, exothermic) and N of the first binding event results from article doi:10.1101/2025.02.06.636884.

The experiment concerns the target cytosolic fragment of the McpN chemoreceptor (Pseudomonas aeruginosa PAO1). In words: ITC. Background: In ITC the heat of successive injections is recorded.

Regarding CheV D238E (natural protein), the KD of the first binding event (high affinity, endothermic) was determined as 8 nM; the KD of the second binding event (lower affinity, exothermic) is 3000 nM; the N of the first binding event came to 0.5.
